The data set deals with the molecule itself. Put plainly: SEC; cell lysate of 32D BCR-ABL cells on Superdex 200 10/300GL, 50 mM phosphate, 0.15 M NaCl, pH 7.2; fractions by UV absorbance and western blot. A general note: SEC sorts molecules by how far they enter the pores of the column.

B1: Flag-tagged K270R mutant PKM2 expressed in 32D BCR-ABL cells (enzyme)
chain: not shown
notes: pyruvate kinase, M2 isoform (PKM2); also called PKM2^K270R; KR; source: 32D BCR-ABL cells, ectopically expressed, in lysate
B1: the “stoichiometry N” value was determined as 4.

In general, stoichiometry N refers to the number of molecules, sites or subunits per partner or assembly.
